From patent US20200079833A1 (AstraZeneca / MedImmune, published 2020)
Starred links: 1 amine or outer side, 2 acyl side, 3 side chain; linkers in the order of their positions; H or OH if unused. Non-standard residues stand in square brackets, D forms with d. Groups on a side chain read outwards from the residue. Primed or numbered codes have the meaning given here. No end group written: not given here. *: point of attachment. γGlu = O=C(O)[C@H](CCC(=O)[*:2])N[*:1]; Stearoyl = CCCCCCCCCCCCCCCCCC(=O)*; αMeF = C[C@](N)(Cc1ccccc1)C(=O)O; αMeK = C[C@](N)(CCCCN)C(=O)O; αMeS = C[C@](N)(CO)C(=O)O; PEG2′ = not defined here; Aib = CC(C)(N)C(=O)O; Ahx = NCCCCCC(=O)O

T1: glucose-dependent insulinotropic peptide (gastric inhibitory polypeptide) receptor (GIPR) (human, UniProt P48546 22-466)
T1 sequence (looked up): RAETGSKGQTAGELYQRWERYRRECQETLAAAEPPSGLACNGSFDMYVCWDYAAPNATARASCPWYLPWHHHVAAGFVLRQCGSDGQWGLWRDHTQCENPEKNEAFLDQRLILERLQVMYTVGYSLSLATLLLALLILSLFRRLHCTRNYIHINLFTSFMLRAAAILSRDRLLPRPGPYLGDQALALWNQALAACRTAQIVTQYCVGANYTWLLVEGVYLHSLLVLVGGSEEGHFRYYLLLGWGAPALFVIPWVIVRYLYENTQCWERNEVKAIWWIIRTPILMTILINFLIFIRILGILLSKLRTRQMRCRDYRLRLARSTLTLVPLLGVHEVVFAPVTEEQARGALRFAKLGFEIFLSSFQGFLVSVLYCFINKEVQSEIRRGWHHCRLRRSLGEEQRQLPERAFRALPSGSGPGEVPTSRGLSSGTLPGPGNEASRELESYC


Assays:
Experiment in all cases: cell-based or functional assay
[1] = molecular target: GLP-1 receptor (GLP-1R) (human, UniProt P43220 24-463)
[2] = molecular target: glucagon receptor (GCGR) (human, UniProt P47871 26-477)
[3] = molecular target: T1, glucose-dependent insulinotropic …

glucagon receptor (GCGR), sequence (P47871 26-477): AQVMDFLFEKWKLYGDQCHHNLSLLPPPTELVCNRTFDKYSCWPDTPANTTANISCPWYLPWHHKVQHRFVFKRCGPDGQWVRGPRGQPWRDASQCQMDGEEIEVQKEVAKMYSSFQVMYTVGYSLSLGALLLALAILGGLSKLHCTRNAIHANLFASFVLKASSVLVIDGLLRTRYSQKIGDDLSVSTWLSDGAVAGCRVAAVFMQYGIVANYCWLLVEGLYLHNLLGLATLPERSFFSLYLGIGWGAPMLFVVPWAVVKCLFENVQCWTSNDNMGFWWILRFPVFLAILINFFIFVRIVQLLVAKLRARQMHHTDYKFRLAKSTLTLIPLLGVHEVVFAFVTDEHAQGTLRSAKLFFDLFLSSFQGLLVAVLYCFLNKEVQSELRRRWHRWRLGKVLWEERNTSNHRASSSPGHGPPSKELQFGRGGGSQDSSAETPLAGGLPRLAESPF

Binder	Primary assay EC50 (cAMP), GLP-1R n1 [1] [nM]	Primary assay EC50 (cAMP), GLP-1R n2 [1] [nM]	Primary assay EC50 (cAMP), Mean pM GLP-1R [1] [pM]	Primary assay EC50 (cAMP), Gluc-R, first run [2] [nM]	Primary assay EC50 (cAMP), Gluc-R, second run [2] [nM]	Primary assay EC50 (cAMP), GIP-R, first run [3] [nM]	Primary assay EC50 (cAMP), GIP-R, second run [3] [nM]
H[Aib]EGS[αMeF]TSDV[αMeS]S[αMeF]LEGEAAK([PEG2′-PEG2′-Stearoyl])E[αMeF]IA[αMeF]VV[αMeK]GG-NH2 [SEQ ID NO 153]	0.0079	0.005	6.4	27	27	27	27
H[Aib]EGS[αMeF]TSDV[αMeS]S[αMeF]LEGEAAK([Ahx-Stearoyl])E[αMeF]IA[αMeF]VV[αMeK]GG-NH2 (N-terminus assumed; SMILES CCCCCCCCCCCCCCCCCC(=O)NCCCCCC(=O)NCCCC[C@H](NC(=O)[C@H](C)NC(=O)[C@H](C)NC(=O)[C@H](CCC(=O)O)NC(=O)CNC(=O)[C@H](CCC(=O)O)NC(=O)[C@H](CC(C)C)NC(=O)[C@](C)(Cc1ccccc1)NC(=O)[C@H](CO)NC(=O)[C@](C)(CO)NC(=O)[C@@H](NC(=O)[C@H](CC(=O)O)NC(=O)[C@H](CO)NC(=O)[C@@H](NC(=O)[C@](C)(Cc1ccccc1)NC(=O)[C@H](CO)NC(=O)CNC(=O)[C@H](CCC(=O)O)NC(=O)C(C)(C)NC(=O)[C@@H](N)Cc1c[nH]cn1)[C@@H](C)O)C(C)C)C(=O)N[C@@H](CCC(=O)O)C(=O)N[C@@](C)(Cc1ccccc1)C(=O)N[C@H](C(=O)N[C@@H](C)C(=O)N[C@@](C)(Cc1ccccc1)C(=O)N[C@H](C(=O)N[C@H](C(=O)N[C@@](C)(CCCCN)C(=O)NCC(=O)NCC(N)=O)C(C)C)C(C)C)[C@@H](C)CC) [SEQ ID NO 158]	0.14	0.16	148	28	28	28	28
H[Aib]EGS[αMeF]TSDV[αMeS]S[αMeF]LEGEAAK([γGlu-Stearoyl])E[αMeF]IA[αMeF]VV[αMeK]GG-NH2 (N-terminus assumed; SMILES CCCCCCCCCCCCCCCCCC(=O)N[C@@H](CCC(=O)NCCCC[C@H](NC(=O)[C@H](C)NC(=O)[C@H](C)NC(=O)[C@H](CCC(=O)O)NC(=O)CNC(=O)[C@H](CCC(=O)O)NC(=O)[C@H](CC(C)C)NC(=O)[C@](C)(Cc1ccccc1)NC(=O)[C@H](CO)NC(=O)[C@](C)(CO)NC(=O)[C@@H](NC(=O)[C@H](CC(=O)O)NC(=O)[C@H](CO)NC(=O)[C@@H](NC(=O)[C@](C)(Cc1ccccc1)NC(=O)[C@H](CO)NC(=O)CNC(=O)[C@H](CCC(=O)O)NC(=O)C(C)(C)NC(=O)[C@@H](N)Cc1c[nH]cn1)[C@@H](C)O)C(C)C)C(=O)N[C@@H](CCC(=O)O)C(=O)N[C@@](C)(Cc1ccccc1)C(=O)N[C@H](C(=O)N[C@@H](C)C(=O)N[C@@](C)(Cc1ccccc1)C(=O)N[C@H](C(=O)N[C@H](C(=O)N[C@@](C)(CCCCN)C(=O)NCC(=O)NCC(N)=O)C(C)C)C(C)C)[C@@H](C)CC)C(=O)O) [SEQ ID NO 155]	0.29	0.19	238	28	28	28	28
H[Aib]EGS[αMeF]TSDV[αMeS]S[αMeF]LEGEAAK([Ahx-Ahx-Stearoyl])E[αMeF]IA[αMeF]VV[αMeK]GG-NH2 (N-terminus assumed; SMILES CCCCCCCCCCCCCCCCCC(=O)NCCCCCC(=O)NCCCCCC(=O)NCCCC[C@H](NC(=O)[C@H](C)NC(=O)[C@H](C)NC(=O)[C@H](CCC(=O)O)NC(=O)CNC(=O)[C@H](CCC(=O)O)NC(=O)[C@H](CC(C)C)NC(=O)[C@](C)(Cc1ccccc1)NC(=O)[C@H](CO)NC(=O)[C@](C)(CO)NC(=O)[C@@H](NC(=O)[C@H](CC(=O)O)NC(=O)[C@H](CO)NC(=O)[C@@H](NC(=O)[C@](C)(Cc1ccccc1)NC(=O)[C@H](CO)NC(=O)CNC(=O)[C@H](CCC(=O)O)NC(=O)C(C)(C)NC(=O)[C@@H](N)Cc1c[nH]cn1)[C@@H](C)O)C(C)C)C(=O)N[C@@H](CCC(=O)O)C(=O)N[C@@](C)(Cc1ccccc1)C(=O)N[C@H](C(=O)N[C@@H](C)C(=O)N[C@@](C)(Cc1ccccc1)C(=O)N[C@H](C(=O)N[C@H](C(=O)N[C@@](C)(CCCCN)C(=O)NCC(=O)NCC(N)=O)C(C)C)C(C)C)[C@@H](C)CC) [SEQ ID NO 159]	0.28	0.23	254	27	27	27	27
H[Aib]EGS[αMeF]TSDV[αMeS]S[αMeF]LEGEAAK([PEG2′-PEG2′-PEG2′-Stearoyl])E[αMeF]IA[αMeF]VV[αMeK]GG-NH2 [SEQ ID NO 154]	0.0028	0.0023	2.5	26	26	26	26
H[Aib]EGS[αMeF]TSDV[αMeS]S[αMeF]LEGEAAK([γGlu-γGlu-Stearoyl])E[αMeF]IA[αMeF]VV[αMeK]GG-NH2 (N-terminus assumed; SMILES CCCCCCCCCCCCCCCCCC(=O)N[C@@H](CCC(=O)N[C@@H](CCC(=O)NCCCC[C@H](NC(=O)[C@H](C)NC(=O)[C@H](C)NC(=O)[C@H](CCC(=O)O)NC(=O)CNC(=O)[C@H](CCC(=O)O)NC(=O)[C@H](CC(C)C)NC(=O)[C@](C)(Cc1ccccc1)NC(=O)[C@H](CO)NC(=O)[C@](C)(CO)NC(=O)[C@@H](NC(=O)[C@H](CC(=O)O)NC(=O)[C@H](CO)NC(=O)[C@@H](NC(=O)[C@](C)(Cc1ccccc1)NC(=O)[C@H](CO)NC(=O)CNC(=O)[C@H](CCC(=O)O)NC(=O)C(C)(C)NC(=O)[C@@H](N)Cc1c[nH]cn1)[C@@H](C)O)C(C)C)C(=O)N[C@@H](CCC(=O)O)C(=O)N[C@@](C)(Cc1ccccc1)C(=O)N[C@H](C(=O)N[C@@H](C)C(=O)N[C@@](C)(Cc1ccccc1)C(=O)N[C@H](C(=O)N[C@H](C(=O)N[C@@](C)(CCCCN)C(=O)NCC(=O)NCC(N)=O)C(C)C)C(C)C)[C@@H](C)CC)C(=O)O)C(=O)O) [SEQ ID NO 156]	0.11	0.1	105	27	27	27	27
H[Aib]EGS[αMeF]TSDV[αMeS]S[αMeF]LEGEAAK([γGlu-γGlu-γGlu-Stearoyl])E[αMeF]IA[αMeF]VV[αMeK]GG-NH2 (N-terminus assumed; SMILES CCCCCCCCCCCCCCCCCC(=O)N[C@@H](CCC(=O)N[C@@H](CCC(=O)N[C@@H](CCC(=O)NCCCC[C@H](NC(=O)[C@H](C)NC(=O)[C@H](C)NC(=O)[C@H](CCC(=O)O)NC(=O)CNC(=O)[C@H](CCC(=O)O)NC(=O)[C@H](CC(C)C)NC(=O)[C@](C)(Cc1ccccc1)NC(=O)[C@H](CO)NC(=O)[C@](C)(CO)NC(=O)[C@@H](NC(=O)[C@H](CC(=O)O)NC(=O)[C@H](CO)NC(=O)[C@@H](NC(=O)[C@](C)(Cc1ccccc1)NC(=O)[C@H](CO)NC(=O)CNC(=O)[C@H](CCC(=O)O)NC(=O)C(C)(C)NC(=O)[C@@H](N)Cc1c[nH]cn1)[C@@H](C)O)C(C)C)C(=O)N[C@@H](CCC(=O)O)C(=O)N[C@@](C)(Cc1ccccc1)C(=O)N[C@H](C(=O)N[C@@H](C)C(=O)N[C@@](C)(Cc1ccccc1)C(=O)N[C@H](C(=O)N[C@H](C(=O)N[C@@](C)(CCCCN)C(=O)NCC(=O)NCC(N)=O)C(C)C)C(C)C)[C@@H](C)CC)C(=O)O)C(=O)O)C(=O)O) [SEQ ID NO 157]	0.24	0.22	227	26	26	26	26
